According to US8889621B2, “Inhibiting binding of FGF23 to the binary FGFR-Klotho complex for the treatment of hypophosphatemia” (New York University, priority 2009, dated 2014):
“Also recorded” adds a separate entry of the source.

T1: Klotho ectodomain (Mus musculus, UniProt O35082)
T1 construct: The ectodomain of murine Klotho (A35 to K982) was purified from culture media; FLAG (C); made in house; host or cells: HEK293 (secreted into culture media)
T1 sequence (O35082 35-982): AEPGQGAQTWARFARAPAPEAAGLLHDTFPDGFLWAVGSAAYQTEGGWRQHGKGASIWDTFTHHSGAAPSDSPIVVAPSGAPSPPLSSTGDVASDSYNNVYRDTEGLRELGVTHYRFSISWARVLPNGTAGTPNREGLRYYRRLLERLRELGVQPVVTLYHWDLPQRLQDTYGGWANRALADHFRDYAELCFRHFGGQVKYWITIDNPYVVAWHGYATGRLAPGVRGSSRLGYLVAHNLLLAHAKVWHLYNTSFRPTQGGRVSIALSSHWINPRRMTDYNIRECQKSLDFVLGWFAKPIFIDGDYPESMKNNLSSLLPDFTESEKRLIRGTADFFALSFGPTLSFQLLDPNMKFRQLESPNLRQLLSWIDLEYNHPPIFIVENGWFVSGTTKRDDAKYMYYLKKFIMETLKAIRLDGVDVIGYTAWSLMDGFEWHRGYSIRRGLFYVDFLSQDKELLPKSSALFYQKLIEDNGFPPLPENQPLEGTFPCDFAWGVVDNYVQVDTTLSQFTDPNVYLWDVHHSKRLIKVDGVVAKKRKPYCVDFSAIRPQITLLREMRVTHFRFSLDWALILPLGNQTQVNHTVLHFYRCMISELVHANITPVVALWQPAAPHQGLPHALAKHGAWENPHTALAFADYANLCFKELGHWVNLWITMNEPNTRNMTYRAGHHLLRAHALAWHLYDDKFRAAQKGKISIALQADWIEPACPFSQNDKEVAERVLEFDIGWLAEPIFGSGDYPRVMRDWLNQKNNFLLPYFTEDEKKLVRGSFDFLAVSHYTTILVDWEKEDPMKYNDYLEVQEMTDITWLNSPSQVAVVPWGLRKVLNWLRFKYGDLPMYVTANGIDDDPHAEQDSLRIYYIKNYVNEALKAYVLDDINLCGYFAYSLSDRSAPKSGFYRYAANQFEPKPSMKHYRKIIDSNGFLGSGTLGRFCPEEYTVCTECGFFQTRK

T2: βKlotho-FGF19 (Mus musculus, UniProt Q99N32)
T2 construct: the ectodomain of murine βKlotho (F53 to L995) was expressed in HEK293 cells; FLAG (C); made in house; host or cells: HEK293 (βKlotho ectodomain); E. coli (FGF19)
T2 sequence (Q99N32 53-995): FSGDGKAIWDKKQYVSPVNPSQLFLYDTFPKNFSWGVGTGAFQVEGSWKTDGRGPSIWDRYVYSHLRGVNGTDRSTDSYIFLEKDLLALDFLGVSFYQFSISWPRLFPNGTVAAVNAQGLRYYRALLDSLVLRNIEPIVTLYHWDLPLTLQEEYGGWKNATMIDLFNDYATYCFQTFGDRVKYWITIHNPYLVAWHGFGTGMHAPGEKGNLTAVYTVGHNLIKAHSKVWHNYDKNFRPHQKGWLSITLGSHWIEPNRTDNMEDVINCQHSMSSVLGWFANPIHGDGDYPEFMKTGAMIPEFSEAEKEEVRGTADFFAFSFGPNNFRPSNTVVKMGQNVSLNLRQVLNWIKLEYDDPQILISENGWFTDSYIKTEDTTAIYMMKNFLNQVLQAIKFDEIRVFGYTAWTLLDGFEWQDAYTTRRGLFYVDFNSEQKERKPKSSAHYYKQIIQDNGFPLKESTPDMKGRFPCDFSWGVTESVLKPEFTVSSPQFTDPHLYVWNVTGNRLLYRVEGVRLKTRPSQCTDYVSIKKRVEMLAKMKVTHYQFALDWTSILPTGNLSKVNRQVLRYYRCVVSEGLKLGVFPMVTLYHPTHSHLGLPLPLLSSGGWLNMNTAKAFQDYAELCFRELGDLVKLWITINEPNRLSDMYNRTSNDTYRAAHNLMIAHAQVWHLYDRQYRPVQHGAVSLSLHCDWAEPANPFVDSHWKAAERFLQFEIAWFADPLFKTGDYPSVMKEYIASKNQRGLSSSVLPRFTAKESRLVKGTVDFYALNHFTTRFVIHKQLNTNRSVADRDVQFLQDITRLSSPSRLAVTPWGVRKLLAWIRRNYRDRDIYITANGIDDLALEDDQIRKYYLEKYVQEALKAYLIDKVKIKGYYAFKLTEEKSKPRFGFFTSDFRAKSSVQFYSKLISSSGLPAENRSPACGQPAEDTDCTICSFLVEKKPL


Key:
[1] = molecular target: T1, Klotho ectodomain; test: SPR: Klotho ectodomain passed over immobilized FGF23; format: binding, murine
Procedure: Surface plasmon resonance (SPR) spectroscopy experiments were performed on a Biacore 2000 instrument (Biacore AB), and FGF23-FGFR1c-Klotho interactions were studied at 25° C. in HBS-EP buffer (10 mM HEPES-NaOH, pH 7.4, 150 mM NaCl, 3 mM EDTA, 0.005% (v/v) polysorbate 20). Proteins were immobilized by amine coupling on flow channels of research grade CM5 chips (Biacore AB). Proteins were injected over a CM5 chip at a flow rate of 50 μl min^−1, and at the end of each protein injection (180 s), HBS-EP buffer (50 μl min^−1) was flowed over the chip to monitor dissociation for 180 s. The chip surface was then regenerated by injecting 50 μl of 2.0 M NaCl in 10 mM sodium acetate, pH 4.5. To control for nonspecific binding in experiments where Klotho ectodomain was immobilized on the chip, β-glucuronidase was coupled to the control flow channel of the chip (˜26-32 fmole/mm^2). […] The data were processed with BiaEvaluation software (Biacore AB). For each protein injection over a Klotho chip, the nonspecific responses from the β-glucuronidase control flow channel were subtracted from the responses recorded for the Klotho flow channel. Similarly, for each protein injection over a FGF chip, the nonspecific responses from the FHF1B control flow channel were subtracted from the responses recorded for the FGF flow channel. […]

[2] = molecular target: T2, βKlotho-FGF19; test: SPR specificity: βKlotho binding to immobilized FGF19^23-216; set-up: species or system murine βKlotho, human FGF19; conditions: molar ratio of 2:1 to βKlotho

| Molecule | binding of Klotho ectodomain to immobilized FGF23 [1] | inhibition of βKlotho binding to immobilized FGF19 [2] |
| --- | --- | --- |
| FGF23^28-251: human FGF23 (A28 to I251), bioactive full-length ligand expressed in E. coli (protein, listed as Homo sapiens) ASPLLGSSWGGLIHLYTATARNSYHLQIHKNGHVDGAPHQTIYSALMIRSEDAGFVVITGVMSRRYLCMDFRGNIFGSHYFDPENCRFQHQTLENGYDVYHSPQYHFLVSLGRAKRAFLPGMNPPPYSQFLSRRNEIPLIHFNTPIPRRHTRSAEDDSERDPLNVLKPRARMTPAPASCSQELPSAEDNSPMASDPLGVVRGGRVNTHAGGTGPEGCRPFAKFI | bound poorly |  |
| FGF23^180-251: 72-amino acid C-terminal tail of human FGF23 (S180 to I251), expressed in E. coli (protein, listed as Homo sapiens) SAEDDSERDPLNVLKPRARMTPAPASCSQELPSAEDNSPMASDPLGVVRGGRVNTHAGGTGPEGCRPFAKFI |  | failed to inhibit; also recorded: no inhibition |
